According to patent US20240409618A1:

Molecular target: SARS-CoV-2 spike protein (isolate USA-WA1/2020) on pseudotyped virus (SARS-CoV-2 (USA-WA1/2020)) (UniProt P0DTC2)
Assay: cell-based or functional assay

## DMAb 2130_FcTM (antibody)
  serum potency (IC50), neutralization of WA1/2020 pseudovirus: 1 to 2 ng/mL
